Laboratory results as given in patent US20230227508A1 (MIT, published 2023).

Tests used:
[1] = molecular target: T1, σN-NpuN-Mdm2* bait fusion (residues 17-124 of Mdm2) (UniProt Q00987 17-124); experiment: split intein σ factor circuit in E. coli, sfGFP read by flow cytometry
T1 construct: range 17-124; also called Mdm2-intein; pTHSS-2132

[2] = molecular target: T1, σN-NpuN-Mdm2* bait fusion (residues …); experiment: cell-based or functional assay

T1 sequence (Q00987 other isoform, or with tags, fused parts or gaps limits assumed): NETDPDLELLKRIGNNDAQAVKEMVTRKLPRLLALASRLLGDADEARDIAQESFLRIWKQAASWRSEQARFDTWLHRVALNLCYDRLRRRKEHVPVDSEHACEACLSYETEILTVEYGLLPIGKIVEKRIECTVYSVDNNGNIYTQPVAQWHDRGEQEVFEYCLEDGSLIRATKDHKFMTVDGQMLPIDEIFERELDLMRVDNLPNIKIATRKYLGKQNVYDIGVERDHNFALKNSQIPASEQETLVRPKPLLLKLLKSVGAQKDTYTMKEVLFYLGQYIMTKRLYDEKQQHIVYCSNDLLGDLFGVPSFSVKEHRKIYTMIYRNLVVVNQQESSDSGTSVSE

B1: ACE2*-NpuC-σC peptide fusion (N-terminal residues 19-56 of ACE2) (other, not shown: small tags and cut ends)
chain: STIEEQAKTFLDKFNHEAEDLFYQSSLASWNYNTNITERGGKGGPGGRGGVGGGGGIGGGFIASNCWLDTRPAPDEQLEASAQSRRMAQALDQLPDRQREAIVLQYYQELSNTEAAALMQISVEALESLLSRARRNLRSHLAEAPGADLSGRRKP
notes: also called ACE2a1; pAMK-857
- binding result [1]: no binding
- drop of the fluorescent output of the circuit relative to the PMI/Mdm2* pair [2]: 15 fold
